From US7994123B2, “Hybrid proteins with ErbB4 extracellular domain and neuregulin heparin-binding domain for targeting” (Wayne State University, priority 2004, dated 2011)
One block for each molecule: values may come before it.

Key:
[1] = system: MCF10CA1 human breast cancer cells; assay: Cell proliferation assay, MCF10CA1; type: cell-based
Method: (§1) Cell proliferation assays: All three breast epithelial cell lines were plated at 5000 cells/well in 48 well plates in regular MCF10A/AT or MCF10CA1 media. After incubation for 3 days, 1 nM NRG in MCF10A/AT media or just MCF10A/AT media alone were applied to the cells for another 24 hours followed by washing them with culture media and then counting cell numbers using an hemocytometer on the 4th, 5th, 6th, 7th and 8th day.
(§2) After 2 days, the Optimem I conditioned media was concentrated by Centricon at 4° C. 40 μl of IgB4 conditioned media or 10 μM of tyrosine kinase inhibitor AG1478 were combined with […] 1 nM NRG in MCF10A/AT media for 15 min at room temperature before being added to MCF10CA1 cells for 30 min treatment. […] The amount of each antagonist was determined empirically based on its ability to block NRG-induced activation of L6 cells.

[2] = system: erbB receptor phosphorylation (p185) in MCF10CA1 cells; assay: p185 receptor phosphorylation western blot, MCF10CA1; type: cell-based, human; conditions: exogenous NRG, 30 min; above high basal levels
Method: (§3) Western blots and L6 muscle assays: P185 receptor phosphorylation of the three cell lines was measured by phosphotyrosine western blots after NRG treatment for 30 min on 3 day old cultures as described in WO 03/012045 and Li Q & Loeb J A (2001) J Biol Chem; 276:38068-75. […] The media was discarded and phosphotyrosine western blots were performed as above. The membranes were stripped and reprobed with polyclonal rabbit erbB2 for the detection of overall erbB2 protein that was used for quantitation.
as §2

MCF10A cells = assay: Cell proliferation assay, MCF10A; type: cell-based, human; conditions: 1 nM NRG for 24 hours, three days after plating
Method: as §1

MCF10AT cells = assay: Cell proliferation assay, MCF10AT; type: cell-based, human; conditions: 1 nM NRG for 24 hours, three days after plating
Method: as §1

[3] = system: erbB receptor phosphorylation (p185) in MCF10A cells; assay: p185 receptor phosphorylation western blot, MCF10A; type: cell-based, human; conditions: exogenous NRG, 30 min
Method: as §3

[4] = system: erbB receptor phosphorylation (p185) in MCF10AT cells; assay: p185 receptor phosphorylation western blot, MCF10AT; type: cell-based, human; conditions: exogenous NRG, 30 min
Method: as §3

[5] = system: eight NRG-response proliferation genes in MCF10A cells; assay: Northern blot of proliferation genes, MCF10A; type: cell-based, human; conditions: 1 nM NRG for 24 hours
Method: (§4) RNA preparation and Northern blotting: MCF10A, MCF10AT and MCFCA1 cells were cultured in 25 cm flasks to approximately 60% confluence. The cells were treated with 1 nM NRG in MCF10A/AT media for 24 hours. The cells were then washed with phosphate buffered saline (PBS) once and harvested. Total RNA was extracted from cells using Ultraspec (Biotecx Laboratories, Inc.), “cleaned up” by Rneasy® purification kit (Qiagen, Valencia, Calif.), and subsequently to quantified using a fluorescent dye binding method called Ribogreen (Molecular Probes, Eugene, Oreg.). Northern blots were performed as described previously (Li & Loeb, supra) on RNA extracted from the 3 breast epithelial cell lines after NRG treatment in MCF10A/AT media verses control MCF10A/AT media. Probes were generated by PCR and then prepared by random priming to full-length cDNA clones from the clones provided by Alphagene Inc as described. The membranes were reprobed with a ^32P-labeled GAPDH probe for normalization.

[6] = system: eight NRG-response proliferation genes in MCF10AT cells; assay: Northern blot of proliferation genes, MCF10AT; type: cell-based, human; conditions: 1 nM NRG for 24 hours
Method: as §4

[7] = system: eight NRG-response proliferation genes in MCF10CA1 cells; assay: Northern blot of proliferation genes, MCF10CA1; type: cell-based, human; conditions: 1 nM NRG for 24 hours
Method: as §4

Heparin column binding = conditions: conditioned media; anti-HA western blot of flow through and elution
Method: (§5) 4. Cell culture: The L6 cells were cultured in DMEM supplemented with 10% fetal calf serum, 1 mM L-glutamine and 1000 U/ml penicillin/streptomycin at 37° C. in 10% CO2 incubator. The HEK293 cells were cultured in DMEM with 10% fetal calf serum, 1 mM L-glutamine, 2 mM sodium pyruvate, 0.1 mM non-essential amino acids, 1000 U/ml penicillin/streptomycin at 37° C. in 10% CO2 incubator. The selective antibiotics Geneticin 200 μg/ml (Gibco-Invitrogen) was added to the cell cultures of stably transfected HEK293 cells harboring the NRG antagonists. 5. Stable expression of NRG antagonists in HEK293 cells: HEK293 cells were cultured in […] flasks to 80% confluence and transfected with the four NRG antagonist constructs using lipofectamine 2000 (Invitrogen Life Science) as instructed. The antibiotic Geneticin was then added at a concentration of 400 μg/ml to the transfected HEK293 cells to select the positive antagonist transfected cells. After three weeks of Geneticin selection, the transfected HEK293 cells were diluted and plated in 96 well plates to yield single positive clones. The single clones that expressed the highest levels of antagonists (confirmed by western blot using HA antibody) were then maintained in culture media with 200 μg/ml Geneticin. Optimem I (Gibco-Invitrogen) was applied to the stably transfected NRG antagonist cell lines at 37° C. in 10% CO2 incubator for 2 days. The conditioned Optimem I media was then used in the following experiments. 6. Heparin column binding: The conditioned media containing the four NRG antagonists was passed through the heparin column to allow binding to heparin. The excessive unbound antagonist proteins were washed off by 1×PBS twice. The antagonist proteins were then eluted by increasing concentration of NaCl (0.25, 0.3, 0.4, 0.5, 0.6 and 1M). The flow through solution from each step was examined by anti-HA western blots, as described later, to determine heparin binding ability of the antagonists. 7. Purification and quantitation of recombinant proteins: The NRG antagonists were purified by anti-HA affinity matrix (3F10) (rat mAb) according to manufacturer's instructions. Briefly, the column was equilibrated with buffer containing 20 mM Tris pH 7.5, 0.1 M NaCl, 0.1 M EDTA, and each antagonist in conditioned medium was applied individually to the anti-HA affinity matrix. Excess unbound antagonist proteins were washed with 20 volume of washing buffer (20 mM Tris pH 7.5, 0.1 M NaCl, 0.1 M EDTA and 0.05% Tween 20). The bound NRG antagonists were eluted with 0.1 M glycine (pH 2). The purified recombinant protein was then quantified using a BioRad Protein Assay kit (Bio-Rad, Hercules, Calif.) 8. Silver stain: Both the conditioned media and the purified NRG antagonists were resolved on 7.5% reducing SDS-polyacrylamide gels. The gel was fixed with 30% ethanol and 10% acetic acid for 30 min. 10% ethanol and ultrapure water were used subsequently to wash the gel before staining with SilverSNAP stain solution with enhancer for 30 min. The gel was then developed using SilverSNAP developer solution with enhancer. 5% acetic acid was used to stop the reaction when the desired band intensity was reached. The gel was dried on filter paper using a vacuum gel dyer. 9. […] Positive control L6 cells were treated with 50 pM NRG alone. L6 cell lysates were prepared and run on 5% SDS-PAGE gel. Western blots of erbB receptor phosphorylation were performed using 4G10 antibody. 10. Western blot: Western blots were performed on both conditioned NRG antagonist media and the antagonist-treated L6 cells. The antagonist proteins and the L6 cells were solubilized in SDS sample buffer and boiled for 5 min as described above (see also Li et al., supra). The NRG antagonists run on 7.5% SDS-PAGE gel were detected by anti-HA mAb HA.11. Phosphotyrosine mAb 4G10 was used to detect phosphorylated erbB receptor (p185) in L6 cell western blot analysis following resolution on overrun 5% reducing SDS-polyacrylamide gels. […]

[8] = system: erbB receptor phosphorylation (p185) in L6 cells; assay: L6 assay: block of NRG-induced erbB receptor phosphorylation (p185); type: cell-based; conditions: preincubated with L6 muscle cells one hour, thoroughly washed before adding recombinant neuregulin
Method: as §5

[9] = system: Mat BIII rat breast cancer cells; assay: Rat syngeneic breast cancer spontaneous metastasis model; type: in vivo; conditions: female Fisher rats, 14-day osmotic mini-pump, about 4 mg/kg/day
Method: The rat syngeneic breast cancer system (Xing et al., Int. J. Cancer 67:423-429 (1996) employs Mat BIII rat breast cancer cells. Tumor cells, for example about 10^6 in 0.1 ml PBS, are inoculated into the mammary fat pads of female Fisher rats. At the time of inoculation, a 14-day Alza osmotic mini-pump is implanted intraperitoneally to dispense the test compound. The compound is dissolved in PBS (e.g., 200 mM stock), sterile filtered and placed in the minipump to achieve a release rate of about 4 mg/kg/day. Control animals receive vehicle (PBS) alone or a vehicle control peptide in the minipump. Animals are sacrificed at about day 14. In the rats treated with the active compounds of the present invention, significant reductions in the size of the primary tumor and in the number of metastases in the spleen, lungs, liver, kidney and lymph nodes (enumerated as discrete foci) are observed. Histological and immunohistochemical analysis reveal increased necrosis and signs of apoptosis in tumors in treated animals. Large necrotic areas are seen in tumor regions lacking neovascularization. […] In contrast, treatment with control polypeptides fails to cause a significant change in tumor size or metastasis.

B1: NRG: recombinant neuregulin β1 IG-EGF form provided by Amgen (protein)
chain: KKKERGSGKKPESAAGSQSPALPPRLKEMKSQESAAGSKLVLRCETSSEYSSLRFKWFKNGNELNRKNKPQNIKIQKKPGKSELRINKASLADSGEYMCKVISKLGNDSASANITIVESNEIITGMPASTEGAYVSSESPIRISVSTEGANTSSSTSTSTTGTSHLVKCAEKEKTFCVNGGECFMVKDLSNPSRYLCKCQPGFTGARCTENVPMKVQNQEKAEELYQKRVLTITGICIALLVVGIMCVVAYCKTKKQRKKLHD
effect on growth rate of MCF10CA1 cells ([1]; 1 nM NRG for 24 hours, three days after plating): increased the initial growth rate
induction of erbB receptor phosphorylation (p185), MCF10CA1 [2]: only a small incremental amount of phosphorylation
effect on growth rate of MCF10A cells (MCF10A cells): sustained reduction in the growth rate
effect on growth rate of MCF10AT cells (MCF10AT cells): only a small, initial reduction in growth rate
induction of erbB receptor phosphorylation (p185), MCF10A [3]: induced strong erbB receptor phosphorylation
induction of erbB receptor phosphorylation (p185), MCF10AT [4]: induced strong erbB receptor phosphorylation
regulation of 8 NRG-response genes, MCF10A [5]: rapid down-regulation of all 8 of these genes
regulation of 8 NRG-response genes, MCF10AT [6]: rapid down-regulation of all 8 of these genes
regulation of 8 NRG-response genes, MCF10CA1 [7]: very little down-regulation of only a few of these genes

binding to heparin column (Heparin column binding): binds to heparin
B2: GlyB4: purified HBD-S-B4 fusion with HIS tag instead of HA tag (protein)
chain: QSGYKKKERGSGKKPESAAGSQSPALPPRLKEMKSQESAAGSKLVLRCETSSEYSSLRFKWFKPNGNELNRKNKQNIKIQKKPGKSELRINKASLADSGEYMCKVISKLGNDSASANITIVESNEIITGMPASTEGAYVSSESPIRISVSTEGANTSSSTSTSTTGTSGTQSVCAGTENKLSSLSDLEQQYRALRKYYENCEVVMGNLEITSIEHNRDLSFLRSVREVTGYVLVALNQFRYLPLENLRIIRGTKLYEDRYALAIFLNYRKDGNFGLQELGLKNLTEILNGGVYVDQNKFLCYADTIHWQDIVRNPWPSNLTLVSTNGSSGCGRCHKSCTGRCWGPTENHCQTLTRTVCAEQCDGRCYGPYVSDCCHRECAGGCSGPKDTDCFACMNFNDSGACVTQCPQTFVYNPTTFQLEHNFNAKYTYGAFCVKKCPHNFVVDSSSCVRACPSSKMEVEENGIKMCKPCTDICPKACDGIGTGSLMSAQTVDSSNIDKFINCTKINGNLIFLVTGIHGDPYNAIEAIDPEKLNVFRTVREITGFLNIQSWPPNMTDFSVFSNLVTIGGRVLYSGLSLLILKQQGITSLQFQSLKEISAGNIYITDNSNLCYYHTINWTTLFSTINQRIVIRDNRKAENCTAEGMVCNHLCSSDGCWGPGPDQCLSCRRFSRGRICIESCNLYDGEFREFENGSICVECDPQCEKMEDGLLTCHGPGPDNCTKCSHFKDGPNCVEKCPDGLQGANSFIFKYADPDRECHPCHPNCTQGCNGPTSHDCIYYPWTGHSTLPQHAKN
modifications: left off: small tags and cut ends
sustained blockade of neuregulin signaling (p185 phosphorylation) [8]: complete and sustained blockade of neuregulin signaling
effectiveness at blocking proliferation compared with Herceptin ([1]; 1 nM GlyB4 versus Herceptin 100 μg/ml): comparably, if not slightly more, effective
blocking of cancer cell growth ([1]; 1 nM, treated on days 0, 3 and 6, compared to control cells or cells treated with B4): significantly more potent at blocking cancer cell growth
potency relative to control polypeptides [9]: at least two-fold more potent than the relevant control polypeptides
